Kd data for 40 molecules are collected here from patent US20220064329A1 (Novo Nordisk, published 2022).

To fix the notation:
T1: recombinant human activated Factor VII (FVIIa) (human, UniProt P08709 61-212; P08709 213-466, ten glutamate residues of the Gla domain may be gamma-carboxylated)
T1 construct: chains tethered by a disulfide bond; also called Factor VIIa; rFVIIa
T1 sequence 1: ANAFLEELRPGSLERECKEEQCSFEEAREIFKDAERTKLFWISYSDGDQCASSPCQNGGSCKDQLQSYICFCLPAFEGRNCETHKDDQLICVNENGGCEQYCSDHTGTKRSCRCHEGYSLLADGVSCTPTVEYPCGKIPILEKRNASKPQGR
T1 sequence 2: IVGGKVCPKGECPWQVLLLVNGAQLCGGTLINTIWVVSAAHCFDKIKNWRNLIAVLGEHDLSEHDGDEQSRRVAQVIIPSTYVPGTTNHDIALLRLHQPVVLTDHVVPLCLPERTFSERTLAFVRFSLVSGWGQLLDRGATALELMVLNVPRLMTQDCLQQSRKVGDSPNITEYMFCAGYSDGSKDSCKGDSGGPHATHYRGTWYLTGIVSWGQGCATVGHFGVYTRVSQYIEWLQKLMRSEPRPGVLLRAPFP

B1: VH SEQ ID NO 522 / VL SEQ ID NO 454 (antibody, IgG4, V domains shown)
VH: QVQLQESGPGLVEPSQTLSLTCTVSGYSISSDSAWSWIRQPPGKGLEWIGYIQYSGSTNYNPSLKSRVTISRDTSKNQFSLKLSSVTAADTAVYYCARSVNYYGNSFAVGPWGQGTLVTVSS
VL: EIVLTQSPATLSLSPGERATLSCRASQGVSDYLHWYQQKPGEAPRLLIKYASQPATGIPARFSGSGSGTDFTLTISSLEPEDFAVYYCQNGHSFPLTFGQGTKLEIK
notes: humanized 11F2; IgG4 S228P/kappa
B2: VH SEQ ID NO 522 / VL SEQ ID NO 494 (antibody, IgG4, V domains shown)
VH: B1 VH
VL: B1 VL with E42Q, F83V
notes: as for B1
B3: VH SEQ ID NO 538 / VL SEQ ID NO 318 (antibody, IgG4, V domains shown)
VH: B1 VH with S30T, G45K, P111Y
VL: B1 VL with V29I, A51T
notes: as for B1
B4: VH SEQ ID NO 530 / VL SEQ ID NO 326 (antibody, IgG4, V domains shown)
VH: B1 VH with P111Y
VL: B1 VL with V29I, A51T, A84G, Q100A, I106L
notes: as for B1
B5: VH SEQ ID NO 522 / VL SEQ ID NO 486 (antibody, IgG4, V domains shown)
VH: B1 VH
VL: B1 VL with E42Q, A84G
notes: as for B1
B6: VH SEQ ID NO 530 / VL SEQ ID NO 422 (antibody, IgG4, V domains shown)
VH: B1 VH with P111Y
VL: B1 VL with H34A, E42Q, N90Q
notes: as for B1
B7: VH SEQ ID NO 530 / VL SEQ ID NO 382 (antibody, IgG4, V domains shown)
VH: B1 VH with P111Y
VL: B1 VL with V29L
notes: as for B1
B8: VH SEQ ID NO 530 / VL SEQ ID NO 334 (antibody, IgG4, V domains shown)
VH: B1 VH with P111Y
VL: B1 VL with V29I, E42Q
notes: as for B1
B9: VH SEQ ID NO 530 / VL SEQ ID NO 478 (antibody, IgG4, V domains shown)
VH: B1 VH with P111Y
VL: B1 VL with E42Q, N90Q
notes: as for B1
B10: VH SEQ ID NO 538 / VL SEQ ID NO 326 (antibody, IgG4, V domains shown)
VH: B1 VH with S30T, G45K, P111Y
VL: B1 VL with V29I, A51T, A84G, Q100A, I106L
notes: as for B1
B11: VH SEQ ID NO 530 / VL SEQ ID NO 430 (antibody, IgG4, V domains shown)
VH: B1 VH with P111Y
VL: B1 VL with H34A, E42Q, A84G
notes: as for B1
B12: VH SEQ ID NO 530 / VL SEQ ID NO 366 (antibody, IgG4, V domains shown)
VH: B1 VH with P111Y
VL: B1 VL with V29L, H34A
notes: as for B1
B13: VH SEQ ID NO 538 / VL SEQ ID NO 334 (antibody, IgG4, V domains shown)
VH: B1 VH with S30T, G45K, P111Y
VL: B1 VL with V29I, E42Q
notes: as for B1
B14: VH SEQ ID NO 538 / VL SEQ ID NO 342 (antibody, IgG4, V domains shown)
VH: B1 VH with S30T, G45K, P111Y
VL: B1 VL with V29I, E42Q, A51T, T69R, Q100A, I106L
notes: as for B1
B15: VH SEQ ID NO 530 / VL SEQ ID NO 470 (antibody, IgG4, V domains shown)
VH: B1 VH with P111Y
VL: B1 VL with E42Q
notes: as for B1
B16: VH SEQ ID NO 538 / VL SEQ ID NO 310 (antibody, IgG4, V domains shown)
VH: B1 VH with S30T, G45K, P111Y
VL: B1 VL with V29I, H34A, E42Q
notes: as for B1
B17: VH SEQ ID NO 538 / VL SEQ ID NO 366 (antibody, IgG4, V domains shown)
VH: B1 VH with S30T, G45K, P111Y
VL: B1 VL with V29L, H34A
notes: as for B1
B18: VH SEQ ID NO 530 / VL SEQ ID NO 438 (antibody, IgG4, V domains shown)
VH: B1 VH with P111Y
VL: B1 VL with H34A, E42Q, F83V
notes: as for B1
B19: VH SEQ ID NO 530 / VL SEQ ID NO 502 (antibody, IgG4, V domains shown)
VH: B1 VH with P111Y
VL: B1 VL with E42Q, A51T
notes: as for B1
B20: VH SEQ ID NO 530 / VL SEQ ID NO 310 (antibody, IgG4, V domains shown)
VH: B1 VH with P111Y
VL: B1 VL with V29I, H34A, E42Q
notes: as for B1
B21: VH SEQ ID NO 530 / VL SEQ ID NO 398 (antibody, IgG4, V domains shown)
VH: B1 VH with P111Y
VL: B1 VL with H34A, A51T
notes: as for B1
B22: VH SEQ ID NO 530 / VL SEQ ID NO 406 (antibody, IgG4, V domains shown)
VH: B1 VH with P111Y
VL: B1 VL with H34A, E42Q, Q100A
notes: as for B1
B23: VH SEQ ID NO 530 / VL SEQ ID NO 462 (antibody, IgG4, V domains shown)
VH: B1 VH with P111Y
VL: B1 VL with E42Q, Q100A
notes: as for B1
B24: VH SEQ ID NO 530 / VL SEQ ID NO 494 (antibody, IgG4, V domains shown)
VH: B1 VH with P111Y
VL: B1 VL with E42Q, F83V
notes: as for B1
B25: VH SEQ ID NO 530 / VL SEQ ID NO 358 (antibody, IgG4, V domains shown)
VH: B1 VH with P111Y
VL: B1 VL with V29I, E42Q, A51T
notes: as for B1
B26: VH SEQ ID NO 530 / VL SEQ ID NO 414 (antibody, IgG4, V domains shown)
VH: B1 VH with P111Y
VL: B1 VL with H34A, E42Q
notes: as for B1
B27: VH SEQ ID NO 530 / VL SEQ ID NO 390 (antibody, IgG4, V domains shown)
VH: B1 VH with P111Y
VL: B1 VL with H34A
notes: as for B1
B28: VH SEQ ID NO 522 / VL SEQ ID NO 502 (antibody, IgG4, V domains shown)
VH: B1 VH
VL: B1 VL with E42Q, A51T
notes: as for B1
B29: VH SEQ ID NO 530 / VL SEQ ID NO 350 (antibody, IgG4, V domains shown)
VH: B1 VH with P111Y
VL: B1 VL with V29I, E42Q, A51T, Q100A, I106L
notes: as for B1
B30: VH SEQ ID NO 530 / VL SEQ ID NO 342 (antibody, IgG4, V domains shown)
VH: B1 VH with P111Y
VL: B1 VL with V29I, E42Q, A51T, T69R, Q100A, I106L
notes: as for B1
B31: VH SEQ ID NO 538 / VL SEQ ID NO 358 (antibody, IgG4, V domains shown)
VH: B1 VH with S30T, G45K, P111Y
VL: B1 VL with V29I, E42Q, A51T
notes: as for B1
B32: VH SEQ ID NO 522 / VL SEQ ID NO 462 (antibody, IgG4, V domains shown)
VH: B1 VH
VL: B1 VL with E42Q, Q100A
notes: as for B1
B33: VH SEQ ID NO 530 / VL SEQ ID NO 486 (antibody, IgG4, V domains shown)
VH: B1 VH with P111Y
VL: B1 VL with E42Q, A84G
notes: as for B1
B34: VH SEQ ID NO 530 / VL SEQ ID NO 454 (antibody, IgG4, V domains shown)
VH: B1 VH with P111Y
VL: B1 VL
notes: as for B1
B35: VH SEQ ID NO 522 / VL SEQ ID NO 478 (antibody, IgG4, V domains shown)
VH: B1 VH
VL: B1 VL with E42Q, N90Q
notes: as for B1
B36: VH SEQ ID NO 538 / VL SEQ ID NO 350 (antibody, IgG4, V domains shown)
VH: B1 VH with S30T, G45K, P111Y
VL: B1 VL with V29I, E42Q, A51T, Q100A, I106L
notes: as for B1
B37: VH SEQ ID NO 522 / VL SEQ ID NO 470 (antibody, IgG4, V domains shown)
VH: B1 VH
VL: B1 VL with E42Q
notes: as for B1
B38: VH SEQ ID NO 530 / VL SEQ ID NO 318 (antibody, IgG4, V domains shown)
VH: B1 VH with P111Y
VL: B1 VL with V29I, A51T
notes: as for B1
B39: VH SEQ ID NO 530 / VL SEQ ID NO 374 (antibody, IgG4, V domains shown)
VH: B1 VH with P111Y
VL: B1 VL with V29L, H34A, E42Q, A51T
notes: as for B1
B40: VH SEQ ID NO 530 / VL SEQ ID NO 446 (antibody, IgG4, V domains shown)
VH: B1 VH with P111Y
VL: B1 VL with H34A, E42Q, A51T
notes: as for B1

Substitutions are numbered along the chain they refer to. Numbers in names are those of the source.

The assay has as its target T1, recombinant human activated Factor VII …. Briefly: BLI (Fortebio). As for the experimental part: All steps were performed in running buffer (20 mM HEPES buffer (pH 7.4), 150 mM NaCl, 5 mM CaCl2, 0.03% Tween 20, 1 mg/ml IgG-free BSA) at […] Antibodies were captured on anti-human tips (AHC, Fortebio) for 3 min at a concentration of 10 ug/ml. This was followed by a 3 min incubation to establish a baseline. Following this, association was monitored for 3 min using four different concentrations of VIIa (25 nm, 50 nM, 100 nM, and 200 nM), followed by a 3 mi dissociation. Sensorgrams were analysed using Fortebio data analysis software.
Regarding B1, the Kd (in general, a measure of binding affinity in units of concentration) turned out to be 1 nM. B2: the Kd came to 1.7 nM. With B3, the equilibrium dissociation constant (Kd) stood at 0.64 nM.

Regarding B4, the Kd came to 1.1 nM.

Turning to B5, the dissociation constant (Kd) was determined as 1.5 nM. Then B6, with 26 nM. As for B7, the Kd came to 1.1 nM. Consider B8, for which the Kd is 1.2 nM. For B9, the Kd turned out to be 1.4 nM. Then B10, with 0.58 nM. Turning to B11, the Kd came to 4.9 nM.

For B12, the equilibrium dissociation constant (Kd) was found to be 3.2 nM.

As to B13, the dissociation constant (Kd) worked out at 0.97 nM. Consider B14, for which the Kd was 1.2 nM. For B15, the Kd was found to be 0.96 nM. With B16, the Kd is 2.5 nM. B17: the Kd came to 6.2 nM. In the case of B18, the Kd worked out at 4.6 nM. Take B19: the Kd was found to be 0.94 nM. B20: the Kd stood at 2.5 nM.

In the case of B21, the Kd is 7.1 nM. Consider B22, for which the Kd worked out at 4.3 nM. Then B23, with 1 nM; and B24, with 1 nM.

On to B25, for which the Kd worked out at 1 nM.

In the case of B26, the Kd stood at 4.5 nM.

In the case of B27, the Kd worked out at 4.1 nM. In the case of B28, the Kd is 1.4 nM. On to B29, for which the Kd was 0.96 nM. Consider B30, for which the Kd was 1.2 nM. As to B31, the Kd came to 0.89 nM. For the molecule B32, the dissociation constant Kd came out at 1.2 nM. Take B33: the Kd worked out at 0.99 nM. For B34, the Kd was found to be 1.1 nM. Regarding B35, the Kd was 1.6 nM. Then B36, with 1 nM. With B37, the Kd was found to be 0.96 nM. In the case of B38, the Kd was 1.2 nM. Take B39: the dissociation constant Kd amounted to 4.2 nM. With B40, the dissociation constant (Kd) was determined as 7.9 nM.
